# Measurements: the nanobody polyreactivity screen of Harvey et al. (2022)
# Assay: yeast display, Sf9 membrane polyspecificity reagent, FACS + sequencing; frameworks hold sequencing errors
# Outline: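 Sorting gates, low and high (top ~1%), were placed on anti-HA fluorescence to track expression and on streptavidin fluorescence to track reagent binding. A clone's polyreactivity label is taken from the gate it came out of. The reagent was 10% biotinylated, detergent-solubilized Sf9 membrane, applied for 1 hour at 4 °C to galactose-induced yeast display cells.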
sequence,measurement,value
QDQLVESGGGLVQAGGSLRLSCAASGSTYYYAMGWYRQAPGKERELVAAIRSGSRTYADSVKGRFTISRDNAKNTVYLQMNSLKPEDTAVYYCAATTWRHNFYSWGQGTQVTVSS,polyreactivity (PSR sort gate),high polyreactivity
QVQLVESGGGLVQAGGSLRLICAASGSTFWSNAMGWYRQAPGKERELVATINSGDGTNYADSVKGRFTISRDNAKNTVYLQMNSLKPEDTAVYYCAAEKYYPWGWYTYDYWGQGTQVTVSS,polyreactivity (PSR sort gate),high polyreactivity
QVQLVESGGGLVQAGGSLRLSCPASGSTFRYYAMGWYRQAPGKERELVAAISYRGGSTKYADSVKGRFTISRDNAKNTVYLQMNSLKPEDTAVYYCNTAPWWRTSSDYEYWGQGTQVTVSS,polyreactivity (PSR sort gate),high polyreactivity
QVQLVESGGGLVQAGGSLRLSCAASGSTFYYNTMGWYRQAPGKERELVAAISSGGSTNYADSVKGRFTISRDNAKNTVYLQMNSLKPEDTAVYYCAKRRGGALYAYRYYYWGQGTQVTVSS,polyreactivity (PSR sort gate),high polyreactivity
QVQLVESGGGLVQAGGSLRLSCAASGSIFFSYAMGWYRPAPGKERELVAAISSGGSTYYADSVKGRFTISRDNAKNTVYLPMNSLKPEDTAVFYCAARGYRLVPVDFYYWGQGTQVTVSS,polyreactivity (PSR sort gate),low polyreactivity
QVQLVESGGGLVQAGGSLRLSCAASGLTFDGYAKGWYRPAPGKERELVAAISSSSGRTYYADSVKGRFTISRDNAKNTVYLQMNSLKPEDTEVYYCNAVTTGVYKDYYYWGQGTQVTVSS,polyreactivity (PSR sort gate),high polyreactivity
QVQLVESGGGLVQAGGSLRLSCAASGSTFGYYDMGWYRQAPGKERELVATITKSGGTTRYADSVKGRFTISRDNAKNTVYLQMNSLKPEDTAVYYCAADGTWRLLDDYWGQGTQVTVSS,polyreactivity (PSR sort gate),low polyreactivity
QVQLVESGGGLVQAGGSLRLSCAASGYTFTGYAMGGYRQAPGKERELFATITRGGSTYYADSVKGRFTISRDNAKNTVYLPMNSLKPEDTAVYYCATRVQYYVKSTTQYGYGYWGQGTQVTVSS,polyreactivity (PSR sort gate),low polyreactivity
QVQLVESGGGLVQAGGSLRLSCAASGLTFYQYAMGWYRQAPGKERELVAGITSGGSTKYADSVKGRFTISRDNAKNTVYLQMNSLKPEDTAVYYCAARFYAFRKGYYYWGQGTQVTVSS,polyreactivity (PSR sort gate),high polyreactivity
QVQLVESGGGLVQAGGSLRLSCAASGFIFTPYAMGWYRQAPGKERELVAAIRNTGSTYYADSVKGRFTISRDNAKNTVYLQMNSLKPEDTAVYYCNARRYRWAVVKGGYWGQGTQVTVSS,polyreactivity (PSR sort gate),high polyreactivity
QVQLVESGGGLVQAGGSLRLSCAASGSIFIQYAMGWYSQAPGKERELVAAINSSGGRTYYADSVKGRFTISRDNAKNTVYLQMNSLKPEDTAVYYCAADPGSSFDWGQGTQVTVSS,polyreactivity (PSR sort gate),low polyreactivity
QVQLLESGGGLVQAGGSLRLICAASGRIIYGYAMGWYRQAPGKERELVAAITATYYADSVKGRFTISRDNAKNTVYLQMKSLKPVDSGVYYCNAYLSPKQPLSTPDPSFEGGYWGQGTQVTVSS,polyreactivity (PSR sort gate),low polyreactivity
QVQLVESGGGLVQAGGSLRLSCAASGITFKPYGMGWYRPAPGKERELVADITSGGITYYADSVKGRFTISRDNAKNTVYLQMNSLKPEDTAVYYCATGDLFVYYWGYVVRLYDYWGQGTQVTVSS,polyreactivity (PSR sort gate),low polyreactivity
QVQLVESGGGLVQAGGSLRLSCSASGSTFHPYAMGWYRQAPGKERELVAAINSGDNTYYADSVKGRFTITRDNAKNTVYLQMNSLKPEDTAVYYCAVRYWDESHTEYDYWGQGTQVTVSS,polyreactivity (PSR sort gate),low polyreactivity
QDQLVESGGGLVQAGGSLRLSCAASGLTFGYYAMGWYRQAPGKERELVAAINSGGSTYYADSVKGRFTISRDNAKNTVYFQMNSLKPEDTAVYYCNATLDLYDSVSYTGPGMDYWGQGTQVTVSS,polyreactivity (PSR sort gate),low polyreactivity
QVQLVESGGGLVQAGGSLRLSCAASGFTFQRYAMGWYRQAPGKERELVAAISGSGGSTYYADSVKGRFTISRDNAKNTVYLQMNSLKPEDTAVYYCAARYKYKDLYRYDYWGQGTQVTVSS,polyreactivity (PSR sort gate),high polyreactivity
QVQLVESGGGLVQAGGSLRLSCAASGSIFFANAMGWYRPAPGKERELVATITSGGSTTYADSLKGRFTISRDNAKNTVYLQMNSLKPEDTAVYYCNADYDYGWVFYSNYDYWGQGTQVTVSS,polyreactivity (PSR sort gate),low polyreactivity
QVQLVESGGGLVQAGGSLRLSCAASGIIFKVNDMGWYRQAHGKEREFVAAITYSGDGTFYADSVKGRFTISRDNAKNTVYLQMNSLKPEDTAVYYCAADLPESPESYYDTDDYWGQGPQVTVSS,polyreactivity (PSR sort gate),low polyreactivity
QVQLVESGGGLVQAGGSLRLSCAASGRIFTTYAMGWYRPAPGKERELVAANTSGGRTNYADSVKGRFTISRDNAKNTVYLQMNSLKPEDTAVYYCAADGGVRRLTGLLYSFDYWGQGTQVTVSS,polyreactivity (PSR sort gate),low polyreactivity
QVQLVESGGGLVQAGGSLRLSCAASGSIFAKYAMGWYRQAPGKERELVAAITSSGDSTNYADSVKGRFTISRDNAKNTVYLQMNSLKPEDTAVYYCAADDQYGYVYYAFWGYDYWGQGTQVTVSS,polyreactivity (PSR sort gate),low polyreactivity
QVQLVESGGGLVQAGGSLRLSSAASGLTIAPYARGWYRPAPGKVWELVAAITQRGSSTYYADSVKGRFTISRDNAKNTVYLQMNSLKRVDTAVYYCAARYRARYYWGQGTQVTVSS,polyreactivity (PSR sort gate),high polyreactivity
QVQLVESGGGLVQAGGSLRLSCAASGFTLYYYAMGGYRQAPGKERELVAAISYSGGTTYYADSVKGRFTISRDNAKNTVYLLMYSLKPEDTAVYYCAAGFYSYSWYVKLAYGYWGQGIQVTVSS,polyreactivity (PSR sort gate),low polyreactivity
QVQRVESGGGLVQAGGSLRLSSAGSGFTYYRNAMGWYRQAPGKERELVAAISFSGGSTYYADSVKGRFTISRDNAKNTVYLQMNSLKPEDTAVYYCAREDYSHSFLTYDYWGQGTQLTVSS,polyreactivity (PSR sort gate),low polyreactivity
QVQLVESGGGLVQAGGSLRLSCAASGRTFVVYAMGWYRQAPGKERELVAVIRVIGGSTNYADSVKRRFTISRDNAKNTVYLQMYSLKPEDTAVYYCAAAWSHSRWDTHDYWGQGTQVNVSS,polyreactivity (PSR sort gate),low polyreactivity
QDQLVESVGGLVQAGGSLRLSCAASVRIFYWNAIGWYRQATGKESELVATITRGDRTYYADSVKGRFTISRDNAKNTVYLQMNSLKPEDTAVYYCARSSNPYFYGMYYWGQGTQVTVSS,polyreactivity (PSR sort gate),high polyreactivity
QVHLVESGGCLVQSGGSLRLSCAASGSTFPSYAKGWYRQAPGKERELVAAINSGGGTNYADSVKGRFTISRDNAKNTVYLQMNILKPEDTAVYYCAADVWKLYAYWGQGTQVTVSS,polyreactivity (PSR sort gate),low polyreactivity
QVQLVESGGGLVQAGGSLRLSCAASGRIFPLYTMGWYRQAPGKERELVAAISVSGGRTSYADSVKGRFTISRDNAKNTVYLQMNSLKPEDTAVYSCAARYYVTSYFSSMYYWGQGTQVTVSS,polyreactivity (PSR sort gate),high polyreactivity
QVQLVESGGGLVQAGGSLRLSCAASGRIFGVYAMGWYRQAPGKERELVAAIDRRGGTTYYADSVKGRFTISRDNAKNTVYLQMNSLKPEDTAVYYCAARSYPFIATYGYWGQGTQVTVSS,polyreactivity (PSR sort gate),high polyreactivity
QVQLVESGGGLVQAGGSLRLSCAASGSTFRPNAMGWYRPAPGKDRELVAAISWSGRSTYYADSVKGRFTISRDQAKTTVYLQMNSLTPQDTAVADCAKELYAGRTDTRTRYDYWGQGTQVTVSS,polyreactivity (PSR sort gate),high polyreactivity
QVQLVESGGGLVQAGGSLRLSCAASGSTLQINGMGWYRQAPGKERELVAAISIGGDTNYADSVKGRFTISRDNAMNTVSLQMNSLKPEDTAVYYCAASGAYDEAYGEAFYYWGQGTQVIVSS,polyreactivity (PSR sort gate),low polyreactivity
QVQLVESGGGLVQAGGSLRLSCAASGFIFTRYAMGWYRQAPGKERELVAVITSSGGTYYADSVKGRFTISRDNAKNTVYLQMNSLKPEDTAVYYCNAVLGYYTYDYWGQGTQVTVSS,polyreactivity (PSR sort gate),high polyreactivity
QVQHVESGGGLVQAGGSLRLSCAASGSIFHVNAMGWYRQAPGKERELVAAISSSGGRTYYADSVKGRFTISRDNAKNTVYLQMNSLKPEDTAVYYCAAASQVRQPPNGGNGYWGQGTQVTVSS,polyreactivity (PSR sort gate),high polyreactivity
QVQLVESGGGLVQAGGSLRLSCAASGSTLSDYAMGWYRQAPGKERELVAAISTSGGRTYYADSVKGRFTISRDNAKNTVYLQMNSLKPEDTAVYYCAVDHYSSYEYWGQGTQVSVSS,polyreactivity (PSR sort gate),low polyreactivity
QVQLVESGRGLVQAGGSLRLSCAASGSTFTEYAMGWYREAPGKERELFAAINRSGGGTYYADSVKGRFTISRDNAKNTVYLQINSLKPEDTADYYCAKDWYRRYIRDYWGQGTQVTVSS,polyreactivity (PSR sort gate),high polyreactivity
QVQLVESGGGLVQAGGSLRLSCAASGRTFGTYALGWYRQAPGKERELVASITSGDSTNYADSVKGRFTISRDNAKNTVYLQMNRLKPEDTAVYYCNARGDVIVTPPKFSFNYEYWGQGTQVTVSS,polyreactivity (PSR sort gate),low polyreactivity
QVQLVESGGGLVQAGGSLRLRCAASGSTFGRNTMGWYRQAPGKERELVAAISKSGGYTRYADSVKGRFTISRDNAKNTVYLQMNSLKPEDTAVYYCAARVYSLGYGGDYWGQGTQVTVSS,polyreactivity (PSR sort gate),high polyreactivity
QVQLVESGGGLVQAGGSLRISSAASGRTFATYVMGWYRQAPGKERELVASITRGGSTNYADSVKGRFTISRDNAKNTVYLQMNSLKPEDTAVYYCAASFLATYDYWGLGTQVTVSS,polyreactivity (PSR sort gate),low polyreactivity
QVQLVESGGGLVQAGGSLRLSCAASGRIFIPYAMGWYRQAPGKERELVAAISSSGGSTYYADSVKGRFTISRDTAKNTVYLQMNSLKPEDTAVYYCAARLYWGYAYETYSSLFEYDYWGQGTQVTVSS,polyreactivity (PSR sort gate),low polyreactivity
QVQLVESGGGLVQAGGSLRLSCAASGRTIYQYAMGWYRQAPGKERELVAAITDNGGRTYYADSVKGRFTISCDNAKNTVYLQMNSLKPEDTAVYYCAAEIWTYSYYVVDNGPYDYWGQGTQVTVSS,polyreactivity (PSR sort gate),low polyreactivity
QVQLVESGGGLVQAGGSLRLSCAASGLIFGSYAMGWSRQAPGKERELVAAISRSGGSTYYADSVKGRFTISRDNAKNTVYLQMNSLKPEDTAVYYCAARGYPLGIGRIKRNYWGQGTQVTVAS,polyreactivity (PSR sort gate),high polyreactivity
QVQLVESGGGLVQAGGSLRLSCAASGRTFYPYAMGWYRQAPGKERELVAAIRRSDGSTYYADSVKGRFTISRDNAKNTVYLQMNSLKPEDTAVYYFAAGQGSRNQYYYWGHGTQVTVSS,polyreactivity (PSR sort gate),high polyreactivity
QVQLVESGGGLVQAGGSLRLSCAASGSIFYTYAMGWYRQAPGKERELVAAISSGGSTTYADSVKGRFTISRDNAKNTVYLQMKSLKPEDTAVYYCNTSYRKKKRYYYWGQGTQVTVSS,polyreactivity (PSR sort gate),high polyreactivity
QVQLVESGGGLVQAGGSLRLSCAASGSILGYYAMGWYRQAPGKERELVAAISWSGGRTYYADSVKGRFTISRDNAKNTVYLQMNSLKPEDTAVYYCNARWRSGPRAYDYWGQGTQVTVSS,polyreactivity (PSR sort gate),high polyreactivity
